Experimental data from patent publication US10125184B2, “Apolipoprotein E polypeptides and their use” (priority 2011, dated 2018).

Experiments:
HCVcc-luc [1] = assay: Attachment versus post-attachment inhibition assay; type: cell-based, Hepatitis C virus; settings: heparin 200 μg/ml, anti-CD81 5 μg/ml, hEP 20 μg/ml, bafilomycin A1 10 nM
Method: (§1) FIGS. 5A-5D. hEP inhibits HCV entry at the attachment step. (A) HCVcc-luc was first mixed with either scrambled peptide or hEP-2 (20 μg/ml) for one hour at room temperature. In Group 1, mixed virus was directly added to Huh7.5.1 cells, whereas in Group 2, virus was purified through ultracentrifuge at 28,000×g for 4 hours in order to remove peptide, and then used to infect Huh7.5.1 cells. **p<0.005. (B) The kinetics of hEP- and bafilomycin A1-mediated inhibition were determined by time-of-addition assays, as described in the examples section. Fitted lines represent sigmoidal time-dependent curves (mean of n=3; error bars, s.d.). (C) HCVcc-Luc was added to Huh7.5.1 cells at 4° C. and incubated for 1.5 hrs. Unbound virus was removed by 2 washes with cold media, fresh media was added, and the cells were shifted to 37° C. to allow synchronous infection to proceed. Heparin (200 μg/ml), anti-CD81 monoclonal antibody (5 μg/ml), hEP (20 μg/ml), or bafilomycin A1 (10 nM) were present in the media either continuously, during the 4° C. incubation only (attachment), or during the 37° C. incubation phase only (post-attachment). % Inhibition was calculated as 100-percent infection relative to control infections containing DMSO or an isotype antibody control containing 0.01% sodium azide (for anti-CD81 only) (mean of n=3; error bars, s.d.). (D) The effects of hEP (2.7 μM) or scrambled peptide on HCV binding were determined as described in the examples section. Results were calculated as relative RNA copies with numbers obtained from the scrambled peptide treated wells set to 100 (mean of n=3; error bars, s.d.). **p<0.005.
To investigate the mechanistic action of hEP, three sets of experiments were conducted. First, hEP-2 (SEQ ID NO: 9) or scrambled peptide-treated HCVcc were purified through ultracentrifugation to remove the peptide and then used to infect naïve Huh7.5.1 cells. […] Second, to determine the kinetics of inhibition, a time-of-addition experiment was conducted. HCV remained sensitive to bafilomycin A1, a fusion inhibitor that prevents endosome acidification, until 3 hours after the 37° C. temperature shift (FIG. 5B), which is consistent with previous reports (Koutsoudakis et al., J Virol 2006; 80:5308-5320). […] In order to determine whether hEP-2 (SEQ ID NO: 9) blocks infection at the initial attachment step or a downstream event in the HCV entry process, hEP-2 (SEQ ID NO: 9) was either added together with HCVcc to cells during the 4° C. attachment step only, and then removed prior to shifting the temperature to 37° C., or added only after the temperature shift. As a positive control, hEP-1 was present during the entire course of the experiment. […] Finally, the direct binding of virions to cell surface was measured using a real-time PCR based assay.

OCLN = assay: Immunoblot of OCLN; type: cell-based
Method: (§2) FIGS. 4A-4C. (A) Huh7.5.1 cells seeded in a 12-well plate were treated with hEP-2 (20 μg/ml) for indicated time periods. Cells were stained with a mouse IgG (istotype control) or the anti-LDLR antibody followed by flow cytometric analysis. An overlay of 7 histograms is presented and the Δ median fluorescence intensity (ΔMFI, LDLR stain minus isotype control stain) of each sample is indicated to the upper right of the figure. (B) Cells were stained with anti-CD81 antibody and analyzed similarly as in A. (C) Immunonblots of SR-BI, CLDN1, and OCLN in the presence of hEP-2 or scrambled peptide.

LDLR = assay: Surface LDLR level on Huh7.5.1 cells by flow cytometry; type: cell-based; settings: various time periods
Method: as §2

HCVpp = HCVpp infection of Huh7.5.1 cells; type: cell-based, Hepatitis C virus (H77, JFH1, J6 envelope)
DENY (Thailand 16681) = assay: Dengue virus infection of Huh7.5.1 cells (TCID50); type: cell-based
Huh7.5.1 cells = assay: Cytotoxicity/cell viability assay (CellTiter-Glo); type: cell-based; settings: 48 hours; hEP up to 100 μg/ml (~14 μM)
Method: FIGS. 1A-1C. A human apoE derived peptide (hEP) suppresses HCV infection. (A) Schematic illustration of apoE protein domains and the amino acid sequences of hEP and mEP peptides. The amino acid sequences shown are hEP-1 (SEQ ID NO: 6) and mEP (SEQ ID NO: 20). (B) Dose dependent inhibition of HCVcc infection by hEP. Huh7.5.1 cells were infected with JFH-1 HCVcc-Luc (MOI˜0.5) in the presence of hEP or mEP for 2 hours. After removal of virus and peptides, cells were further incubated for 48 hours prior to luciferase assay. Data are presented as % inhibition relative to control infections in which cells were treated with DMSO (0%). Results are expressed as mean±standard deviation (s.d.) (n=3). (C). Huh7.5.1 cells were treated with hEP or DMSO at indicated doses for 48 hours. The effect of hEP on cell viability was measured by a CellTiter Glo assay kit.
Huh7.5.1 cells (10^5 per well) were treated with hEP or DMSO at various concentrations for 48 hours in 24-well plates. The numbers of viable cells in culture were determined using the CELLTITER-GLO® Cell Viability Luminescent Assay kit according to the manufacturer's instruction (Promega).

CLDN1 = assay: Immunoblot of CLDN1; type: cell-based
Method: as §2

HCVcc-luc [2] = assay: Time-of-addition assay; type: cell-based, Hepatitis C virus; settings: 20 μg/ml (2.7 μM)
Method: as §1, with “bars, s.d.). […] Heparin (200” for “bars, s.d.). (C) HCVcc-Luc was added to Huh7.5.1 cells at 4° C. and incubated for 1.5 hrs. Unbound virus was removed by 2 washes with cold media, fresh media was added, and the cells were shifted to 37° C. to allow synchronous infection to proceed. Heparin (200”, “s.d.). **p<0.005. […]” for “s.d.). **p<0.005.”

HCVcc-luc [3] = assay: Anti-HCV activity after pre-incubation of the peptide in cell culture; type: cell-based, Hepatitis C virus; settings: 20 μg/ml, 24 hours in culture before HCVcc-luc

EELRVRLASHLRKLRKRLLRDADDLQKRLAVYEEQAQQIRLQAEAFQARLKSWFEPLVEDM [hEP-1]
Inhibition when present after the temperature shift only (post-attachment) (HCVcc-luc [1]): very little inhibition
Inhibition when present during the 4° C. attachment step only (HCVcc-luc [1]): strongly inhibited

B1: hEP: human apoE dual-domain peptide: helix 4 of N-terminal domain plus major lipid-binding region; expressed in bacteria (protein)
peptide: EELRVRLASHLRKLRKRLLRDADDLQKRLAVYEEQAQQIRLQAEAFQARLKSWFEPLVEDM
Effect on level of OCLN (OCLN): did not affect
Change of surface LDLR (LDLR): did not cause detectable change
Effect on infectivity of HCVpp (HCVpp): did not affect the infectivity
Effect on infectivity of DENY (DENY (Thailand 16681)): did not affect the infectivity
Cytotoxicity (cell viability) (Huh7.5.1 cells): no cytotoxicity
Effect on level of CLDN1 (CLDN1): did not affect
Effect on infectivity of HIV-1 (HIV-1): did not affect the infectivity
Activity when added after the temperature shift (time of addition) (HCVcc-luc [2]): disappeared almost completely
Anti-HCV activity after being left in the culture (HCVcc-luc [3]): largely retained
